{
  "source": "patent US20100266614A1",
  "about": "(AstraZeneca / MedImmune, published 2010)",
  "binders": {"B1": {"name": "clone 3 (PFFF) (Fab, V domains shown)", "VH": "QVTLRESGPALVKPTQTLTLTCTFSGFSLSTPGMSVGWIRQPPGKALEWLADIWWDDKKDYNPSLKSRLTISKDTSKNQVVLKVTNMDPADTATYYCARSMITNFYFDVWGQGTTVTVSS", "VL": "DIQMTQSPSTLSASVGDRVTITCSASSSVGYMHWYQQKPGKAPKLLIYDTFKLASGVPSRFSGSGSGTEFTLTISSLQPDDFATYYCFQGSFYPFTFGGGTKVEIK", "notes": "also called 3 (n = 3)"}, "B2": {"name": "clone 22 (AFFF) (Fab, V domains shown)", "VH": "B1 VH with P32A", "VL": "B1 VL", "notes": "also called 4D2-7"}, "B3": {"name": "clone 2 (AFFG) (Fab, V domains shown)", "VH": "B1 VH with P32A", "VL": "B1 VL with F92G"}, "B4": {"name": "clone 23 (AFFY) (Fab, V domains shown)", "VH": "B1 VH with P32A", "VL": "B1 VL with F92Y"}, "B5": {"name": "clone 1 (AFSF) (Fab, V domains shown)", "VH": "B1 VH with P32A", "VL": "B1 VL with F51S"}, "B6": {"name": "16 (antibody, V domains shown)", "VH": "B1 VH with P32A, F105W", "VL": "B1 VL with F51S, F92G", "notes": "also called AWSG"}, "B7": {"name": "clone 6 (PFYF) (antibody, V domains shown)", "VH": "B1 VH", "VL": "B1 VL with F51Y"}, "B8": {"name": "clone 17 (PWSW) (antibody, V domains shown)", "VH": "B1 VH with F105W", "VL": "B1 VL with F51S, F92W"}, "B9": {"name": "IX-493 (SWSG), basic or reference antibody (Fab, V domains shown)", "VH": "B1 VH with P32S, F105W", "VL": "B1 VL with F51S, F92G", "notes": "also called basic antibody"}, "B10": {"name": "clone 4 (PFFY) (antibody, V domains shown)", "VH": "B1 VH", "VL": "B1 VL with F92Y", "notes": "also called 4 (n = 3)"}, "B11": {"name": "clone 19 (SFSW) (antibody, V domains shown)", "VH": "B1 VH with P32S", "VL": "B1 VL with F51S, F92W"}, "B12": {"name": "clone 21 (SWYF) (antibody, V domains shown)", "VH": "B1 VH with P32S, F105W", "VL": "B1 VL with F51Y"}, "B13": {"name": "clone 13 (SFFF) (antibody, V domains shown)", "VH": "B1 VH with P32S", "VL": "B1 VL", "notes": "also called 13 (n = 3)"}, "B14": {"name": "clone 7 (PFFG) (antibody, V domains shown)", "VH": "B1 VH", "VL": "B1 VL with F92G", "notes": "also called 7 (n = 4)"}, "B15": {"name": "clone 11 (PWFW) (antibody, V domains shown)", "VH": "B1 VH with F105W", "VL": "B1 VL with F92W"}, "B16": {"name": "clone 12 (PWFF) (antibody, V domains shown)", "VH": "B1 VH with F105W", "VL": "B1 VL", "notes": "also called 12 (n = 2)"}, "B17": {"name": "clone 16 (PFSG) (antibody, V domains shown)", "VH": "B1 VH", "VL": "B1 VL with F51S, F92G", "notes": "also called 16 (n = 2)"}, "B18": {"name": "clone 15 (AFSG) (antibody, V domains shown)", "VH": "B1 VH with P32A", "VL": "B1 VL with F51S, F92G", "notes": "also called 15 (n = 2)"}, "B19": {"name": "clone 20 (SFSF) (antibody, V domains shown)", "VH": "B1 VH with P32S", "VL": "B1 VL with F51S"}, "B20": {"name": "clone 14 (SFFW) (antibody, V domains shown)", "VH": "B1 VH with P32S", "VL": "B1 VL with F92W"}, "B21": {"name": "clone 10 (PFSF) (antibody, V domains shown)", "VH": "B1 VH", "VL": "B1 VL with F51S"}, "B22": {"name": "clone 5 (PFFW) (antibody, V domains shown)", "VH": "B1 VH", "VL": "B1 VL with F92W", "notes": "also called 5 (n = 3)"}, "B23": {"name": "clone 18 (SFFG) (antibody, V domains shown)", "VH": "B1 VH with P32S", "VL": "B1 VL with F92G", "notes": "also called 18 (n = 2)"}, "B24": {"name": "clone 9 (PFSW) (antibody, V domains shown)", "VH": "B1 VH", "VL": "B1 VL with F51S, F92W", "notes": "also called 9 (n = 2)"}},
  "note": "Positions count from the first letter of the chain named.",
  "data": [
    {"biological_target": "T1, RSV F protein (C-terminal truncated F protein secreted from a recombinant baculovirus) (respiratory syncytial virus (RSV), UniProt P03420 26-524)", "T1 construct": "also called F antigen; RSV F antigen", "T1 sequence (P03420 26-109, chain 1 of 2)": "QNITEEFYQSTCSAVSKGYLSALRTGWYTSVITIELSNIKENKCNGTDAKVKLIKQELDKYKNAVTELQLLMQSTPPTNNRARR", "T1 sequence (P03420 137-524, chain 2 of 2)": "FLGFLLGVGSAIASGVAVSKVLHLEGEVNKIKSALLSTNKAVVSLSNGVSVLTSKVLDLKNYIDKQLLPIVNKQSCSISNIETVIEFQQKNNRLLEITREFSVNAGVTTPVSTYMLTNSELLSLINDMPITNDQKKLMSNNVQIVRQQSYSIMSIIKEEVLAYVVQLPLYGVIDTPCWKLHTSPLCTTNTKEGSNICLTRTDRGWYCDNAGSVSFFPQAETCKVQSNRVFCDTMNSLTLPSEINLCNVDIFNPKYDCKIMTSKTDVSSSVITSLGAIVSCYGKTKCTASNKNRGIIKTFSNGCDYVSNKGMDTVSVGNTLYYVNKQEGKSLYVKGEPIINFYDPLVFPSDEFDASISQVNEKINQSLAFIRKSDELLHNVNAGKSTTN", "assay": "SPR (BIAcore), from the kinetic constants of Table 4", "units": {"Kd": "pM"}, "values": [
      {"binder": "B1", "Kd": "~12.3"},
      {"binder": "B2", "Kd": "~2.8"},
      {"binder": "B3", "Kd": "~13.7"},
      {"binder": "B4", "Kd": "~2.5"},
      {"binder": "B5", "Kd": "~14.3"}
    ]},
    {"biological_target": "T1, RSV F protein (C-terminal truncated F …)", "assay": "ELISA titration of antibody on RSV F antigen, O.D. 560", "units": {"EC50 (read off the curve)": "µg/mL"}, "values": [
      {"binder": "B6", "EC50 (read off the curve)": "~0.03"},
      {"binder": "B7", "EC50 (read off the curve)": "~0.02"},
      {"binder": "B8", "EC50 (read off the curve)": "~0.04"},
      {"binder": "B9", "EC50 (read off the curve)": "~0.2"},
      {"binder": "B10", "EC50 (read off the curve)": "~0.01"}
    ]},
    {"biological_target": "T1, RSV F protein (C-terminal truncated F …)", "assay": "ELISA titration of antibody on 500 ng RSV F antigen; qualitative score from titration curves", "units": {"Ag Score": "arbitrary score 0-4"}, "values": [
      {"binder": "B1", "Ag Score": 4},
      {"binder": "B11", "Ag Score": 2},
      {"binder": "B12", "Ag Score": 2},
      {"binder": "B13", "Ag Score": 2.5},
      {"binder": "B3", "Ag Score": 4},
      {"binder": "B14", "Ag Score": 3},
      {"binder": "B15", "Ag Score": 3},
      {"binder": "B16", "Ag Score": 2.5},
      {"binder": "B5", "Ag Score": 4},
      {"binder": "B17", "Ag Score": 2},
      {"binder": "B18", "Ag Score": 2.5},
      {"binder": "B19", "Ag Score": 2},
      {"binder": "B20", "Ag Score": 2.5},
      {"binder": "B21", "Ag Score": 3},
      {"binder": "B22", "Ag Score": 3.5},
      {"binder": "B7", "Ag Score": 3.5},
      {"binder": "B8", "Ag Score": 2},
      {"binder": "B23", "Ag Score": 2},
      {"binder": "B9", "Ag Score": 0.1},
      {"binder": "B24", "Ag Score": 3},
      {"binder": "B10", "Ag Score": 3.5}
    ]},
    {"biological_target": "T1, RSV F protein (C-terminal truncated F …)", "assay": "SPR (BIAcore), F protein immobilized by EDC/NHS, Fab injected; kon and koff measured separately", "units": {"koff": "s⁻¹", "kon": "M⁻¹ s⁻¹"}, "values": [
      {"binder": "B1", "koff": "1.35e-06", "kon": 110000},
      {"binder": "B2", "koff": "3.7e-07", "kon": 134000},
      {"binder": "B3", "koff": "1.82e-06", "kon": 133000},
      {"binder": "B4", "koff": "3.03e-07", "kon": 122000},
      {"binder": "B5", "koff": "1.62e-06", "kon": 113000}
    ]},
    {"biological_target": "T1, RSV F protein (C-terminal truncated F …)", "assay": "SPR (BIAcore), F protein immobilized by EDC/NHS, Fab injected; calculated from the rate constants", "units": {"Ka": "M⁻¹"}, "values": [
      {"binder": "B1", "Ka": "8.15e+10"},
      {"binder": "B2", "Ka": "3.62e+11"},
      {"binder": "B3", "Ka": "7.31e+10"},
      {"binder": "B4", "Ka": "4.03e+11"},
      {"binder": "B5", "Ka": "6.98e+10"}
    ]}
  ]
}
